According to patent publication US20190002888A1 (INSTITUT NATIONAL DE LA SANTE ET DE LA RECHERCHE MEDICALE …, published 2019):
One block for each molecule: values may come before it.

How the values were obtained:
[1] = molecular target: FLT3 receptor in adult mouse DRG sensory neurons (mouse) (UniProt Q00342); test: cell-based or functional assay
[2] = molecular target: T1, SNAP tagged mouse FLT3, full-length, expressed in HEK293T cells (mouse, UniProt Q00342 28-1000, SNAP tag covalently labelled with SNAP-Lumi4-Tb); test: TR-FRET displacement of 0.5 nM Red-FL on HEK293T cells expressing SNAP tagged full-length mFLT3
T1 construct: whole, on cells; Transiently transfected HEK293T cells; also called full-length mFLT3; mFLT3; not shown: SNAP tag (plasmid from Cisbio Bioassays)
T1 sequence (looked up): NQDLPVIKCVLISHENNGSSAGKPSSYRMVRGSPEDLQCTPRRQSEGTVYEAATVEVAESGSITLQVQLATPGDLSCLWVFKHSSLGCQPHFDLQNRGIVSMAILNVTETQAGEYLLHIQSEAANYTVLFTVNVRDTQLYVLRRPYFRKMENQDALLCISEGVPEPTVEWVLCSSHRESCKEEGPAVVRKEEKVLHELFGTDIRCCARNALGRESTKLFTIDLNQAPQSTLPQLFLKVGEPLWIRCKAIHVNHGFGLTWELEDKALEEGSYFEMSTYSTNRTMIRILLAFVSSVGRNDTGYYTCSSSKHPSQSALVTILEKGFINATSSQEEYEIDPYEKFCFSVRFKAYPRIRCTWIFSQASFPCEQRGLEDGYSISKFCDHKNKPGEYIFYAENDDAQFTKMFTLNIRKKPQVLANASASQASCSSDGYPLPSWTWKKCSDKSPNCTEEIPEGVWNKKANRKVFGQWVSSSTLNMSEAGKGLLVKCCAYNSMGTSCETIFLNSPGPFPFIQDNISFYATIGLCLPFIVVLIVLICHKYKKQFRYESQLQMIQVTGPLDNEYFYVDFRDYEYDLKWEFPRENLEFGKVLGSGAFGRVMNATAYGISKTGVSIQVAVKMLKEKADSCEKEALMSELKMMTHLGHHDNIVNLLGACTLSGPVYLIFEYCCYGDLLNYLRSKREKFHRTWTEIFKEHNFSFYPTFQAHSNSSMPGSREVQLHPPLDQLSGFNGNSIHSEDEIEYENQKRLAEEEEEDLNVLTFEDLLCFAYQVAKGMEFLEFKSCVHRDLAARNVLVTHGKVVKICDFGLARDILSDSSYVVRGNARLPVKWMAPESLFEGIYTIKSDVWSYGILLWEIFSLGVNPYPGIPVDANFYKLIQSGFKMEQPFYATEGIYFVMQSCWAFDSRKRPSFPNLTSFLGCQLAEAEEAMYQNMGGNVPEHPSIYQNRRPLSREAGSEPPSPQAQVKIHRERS
Description: (§1) TR-FRET binding assays. TR-FRET binding assays were performed 24 h after transfection on fresh cells. When using frozen cells, binding assays were carried out immediately after cells thawing. When the assay was carried out on adherent cells in 96-well plates, the cell density was 50,000 cells per well, while a density of 10,000 cells per well was used to carry out binding assays in suspension in 384-well small volume plates.
(§2) Cells were incubated with 0.5 nM Red-FL in the presence of increasing concentrations of the antibody. In the plates containing labelled cells, 50 μl of Tag-lite® labelling medium, 25 μl of compounds to be tested were added and incubated for 1 h at room temperature prior to the addition of 25 μl of Red-FL. Plates were then incubated at room temperature for 4 h or overnight before signal detection.
(§3) Signal detection. Signal was detected using an advanced fluorescence microplate reader (RUBYstar, BMG Labtech) equipped with a HTRF optic module allowing a donor excitation at 337 nm and a signal collection both at 665 nm and 620 nm. A frequency of 20 flashes/well is selected for the laser excitation. […] Results were expressed as percentage of signal measured in the presence of Red-FL alone, corrected for non-specific binding measured in the presence of […].

[3] = molecular target: T2, SNAP tagged human FLT3, full-length, expressed in HEK293T cells (human, UniProt P36888 27-993, SNAP tag covalently labelled with SNAP-Lumi4-Tb); test: TR-FRET displacement of 0.5 nM Red-FL on HEK293T cells expressing SNAP tagged full-length hFLT3
T2 construct: whole, on cells; Transiently transfected HEK293T cells; also called full-length hFLT3; hFLT3; not shown: SNAP tag (plasmid from Cisbio Bioassays)
T2 sequence (looked up): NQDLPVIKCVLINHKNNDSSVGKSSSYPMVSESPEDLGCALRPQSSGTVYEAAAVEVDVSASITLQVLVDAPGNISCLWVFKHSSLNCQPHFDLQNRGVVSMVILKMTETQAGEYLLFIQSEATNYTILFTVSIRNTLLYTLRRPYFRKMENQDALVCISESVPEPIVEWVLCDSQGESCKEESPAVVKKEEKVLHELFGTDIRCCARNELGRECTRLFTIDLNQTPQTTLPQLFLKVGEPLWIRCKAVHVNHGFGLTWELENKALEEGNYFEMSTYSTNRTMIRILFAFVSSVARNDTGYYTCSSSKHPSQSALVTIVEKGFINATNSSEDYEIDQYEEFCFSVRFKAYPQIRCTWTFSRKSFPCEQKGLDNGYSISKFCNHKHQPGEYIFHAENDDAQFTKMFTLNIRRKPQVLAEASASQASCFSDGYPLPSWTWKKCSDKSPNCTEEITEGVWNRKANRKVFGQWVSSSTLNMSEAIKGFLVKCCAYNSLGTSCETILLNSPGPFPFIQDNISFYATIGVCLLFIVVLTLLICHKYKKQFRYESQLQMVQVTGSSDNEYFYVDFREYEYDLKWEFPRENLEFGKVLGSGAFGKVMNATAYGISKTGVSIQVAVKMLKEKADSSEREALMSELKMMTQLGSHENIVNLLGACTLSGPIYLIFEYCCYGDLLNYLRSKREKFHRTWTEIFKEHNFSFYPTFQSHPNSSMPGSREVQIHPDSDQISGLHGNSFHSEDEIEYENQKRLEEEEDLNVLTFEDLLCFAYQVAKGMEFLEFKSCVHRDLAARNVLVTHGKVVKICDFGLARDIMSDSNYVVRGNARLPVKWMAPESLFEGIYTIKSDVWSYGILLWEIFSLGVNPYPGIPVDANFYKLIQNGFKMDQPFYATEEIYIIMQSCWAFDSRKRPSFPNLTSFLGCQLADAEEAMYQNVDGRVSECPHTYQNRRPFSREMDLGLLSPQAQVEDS
Description: as §1, §2, §3

- mean fold increase in TRPV1 response, ΔFarea [1]: 512%
- mean fold increase in TRPV1 response, ΔFpeak [1]: 212%
- potentiation of the capsaicin response ([Ca2+]i, Fura-2) in DRG neurons: share of capsaicin-responding cells potentiated [1]: 56%
Molecule: FL (FLT3-Ligand, from ABCYS SA)

- IC50 [2]: ~17 µg/mL
- IC50 [3]: ~17 µg/mL
B1: A3 antibody (human monoclonal antibody against FLT3) (antibody, V domains shown)
VH: EVQLVESGGSLVKPGGSLRLSCAASGFTFSNSYMNWVRQAPGKGLEWISDISGSSRDIDYADFVKGRFTISRDNATNSLYLQMNSLRAEDTAVYYCVRSGNSGMDVWGRGTLVTVSS
VL: QSVLTQPASVSGSPGQSITISCAGTSSDVGGGYYVSWYQQHPGKAPKLMIYYDSYRPSGVSNRFSGSKSGNTASLTISGLQAEDEADYYCSSYTNNSTRVFGGGTKLEIK
notes: also called antibody A3; anti-FLT3 A3 antibody
